Results taken from article PMC4253602 (Molecular oncology, 2014).
Like-named read-outs stand apart in the source and are kept apart here.

T1: full-length wt-AR (VP16 fusion) (human, UniProt P10275 1-920)
T1 sequence (looked up): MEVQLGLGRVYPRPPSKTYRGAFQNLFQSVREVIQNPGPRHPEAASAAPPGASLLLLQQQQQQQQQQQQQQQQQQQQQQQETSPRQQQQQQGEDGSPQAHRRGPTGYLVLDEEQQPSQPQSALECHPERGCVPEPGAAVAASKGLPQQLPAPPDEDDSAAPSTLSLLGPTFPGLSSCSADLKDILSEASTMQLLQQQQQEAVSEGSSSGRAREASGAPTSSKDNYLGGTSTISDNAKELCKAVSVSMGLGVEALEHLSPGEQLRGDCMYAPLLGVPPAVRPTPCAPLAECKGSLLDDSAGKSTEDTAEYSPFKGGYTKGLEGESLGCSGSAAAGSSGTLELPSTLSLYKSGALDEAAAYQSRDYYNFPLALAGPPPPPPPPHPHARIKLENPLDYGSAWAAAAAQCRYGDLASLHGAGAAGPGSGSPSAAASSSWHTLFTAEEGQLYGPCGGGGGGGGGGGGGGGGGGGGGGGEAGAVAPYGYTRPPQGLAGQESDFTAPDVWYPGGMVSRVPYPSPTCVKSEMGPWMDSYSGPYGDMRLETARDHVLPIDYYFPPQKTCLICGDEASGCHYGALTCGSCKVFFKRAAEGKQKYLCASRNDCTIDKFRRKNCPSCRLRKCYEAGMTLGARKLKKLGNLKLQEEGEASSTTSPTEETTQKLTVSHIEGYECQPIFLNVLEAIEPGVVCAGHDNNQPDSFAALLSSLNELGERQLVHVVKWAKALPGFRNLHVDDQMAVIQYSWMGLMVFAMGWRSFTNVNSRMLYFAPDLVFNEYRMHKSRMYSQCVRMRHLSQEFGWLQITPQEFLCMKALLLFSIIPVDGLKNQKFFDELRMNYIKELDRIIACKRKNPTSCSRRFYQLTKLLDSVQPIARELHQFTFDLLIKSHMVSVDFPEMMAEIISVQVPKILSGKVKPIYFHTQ


How the values were obtained:
[1] = biological target: ARN20-FY (biotinylated peptide) (human); assay: SPR
[2] = biological target: ARN20-HY (biotinylated peptide) (human); assay: SPR
[3] = biological target: ARN20-LY (biotinylated peptide) (human); assay: SPR
[4] = biological target: ARN20-WY (biotinylated peptide) (human); assay: SPR
[5] = biological target: C320-HY (biotinylated peptide); assay: SPR
[6] = biological target: C320-LY (Biotin-C320); assay: SPR
[7] = biological target: C320-WY (biotinylated peptide); assay: SPR
[8] = biological target: C320-YY (biotinylated peptide); assay: SPR
[9] = biological target: full-length T877A-AR (VP16 fusion) (human); assay: two-hybrid
[10] = biological target: T1, full-length wt-AR (VP16 fusion); assay: two-hybrid
[11] = biological target: full-length T877A-AR (VP16 fusion) (human); assay: two-hybrid; remark: listed apart in the source

Molecule	two-hybrid reporter activity (Gal-4 = 1) [9]	two-hybrid reporter activity (Gal-4 = 1) [10]	two-hybrid reporter activity (Gal-4 = 1) [11]	other results
wild-type AR-DBD-LBD (domain or fragment)				Kd [1]: 38 nM; Kd [2]: 140000 nM; Kd [3]: 100 nM; Kd [4]: 500 nM; Kd [5]: 38000 nM; Kd [6]: 30 nM; Kd [7]: 140 nM; Kd [8]: 3800 nM
SPFEEHYLSTQS [B34 (Gal-4 fusion)]	37	42		
HPARTSFETHYM [B411 (Gal-4 fusion)]		13	16	
HASPFEMHYLLG [HF-26 (Gal-4 fusion)]	8400	8900	8900	
ANSSFRDWYTSS [B46 (Gal-4 fusion)]	376	792	1260	
SHSSFYQYYLDN [A310 (Gal-4 fusion)]	3590	4770	4460	
PAPKFKEFFYAE [A43 (Gal-4 fusion)]	7350	8840	8300	
HTSMFESFFRKE [HF-15 (Gal-4 fusion)]	13900	11500	14500	
NTNAFSRLFYPS [#3-18 (Gal-4 fusion)]	11000	12500		
RGAFQNLFQSV [ARN20 (Gal-4 fusion)]	1580	1310	1420	
HPTHSSRLWELLMEATPTM [D30 (Gal-4 fusion)]	18100	19900	8800	
KTRYIFDLFYKRKAY [BUD31 peptide (Gal-4 fusion)]	12000	8940	4870	
SPTPHFTRLFHY [B310 (Gal-4 fusion)]	12100	17800	6720	
EASNSSFARLFH [B426 (Gal-4 fusion)]	9550	13500	1510	
TEPPAAFRQLFF [C317 (Gal-4 fusion)]	5230	6600	4380	
SSFADLWRNEAT [C314 (Gal-4 fusion)]	859	1140	121	
SKFSQLYSYEPP [B49 (Gal-4 fusion)]	1030	1790	318	
SPTRLFDHLYMT [B423 (Gal-4 fusion)]	401	1220	168	
STFESLYNNMTA [C33 (Gal-4 fusion)]	1020	1330	399	
SDSAFSRLYTRS [C320 (Gal-4 fusion)]	12700	13400	4650	
SSGGFERFYIAQ [A41 (Gal-4 fusion)]	3060	4310	3510	
VLPGSTFERFYR [A49 (Gal-4 fusion)]	26	25		
HNTKFSTFYNMD [B37 (Gal-4 fusion)]	6240	9160	8710	
NTPLFQTFYNQR [B45 (Gal-4 fusion)]	12600	18000	17200	
DSQYSSFSRYYK [A47 (Gal-4 fusion)]		21		
HKASPFNYYYLN [B311 (Gal-4 fusion)]		46		
NPRTPTTFERYY [B414 (Gal-4 fusion)]		18		
DPPTSKFSTFYQ [A48 (Gal-4 fusion)]		32		
SFYDFYNGASTP [C41 (Gal-4 fusion)]		23		
NTTDTLFSQHYR [B32 (Gal-4 fusion)]		41		
